Here are results for eleven molecules from PMC10249358 (2023).

Like-named read-outs stand apart in the source and are kept apart here. No end group written: not given here. *: point of attachment. FITC = O=C1OC2(c3ccc(O)cc3Oc3cc(O)ccc32)c2ccc(NC(=S)*)cc21

Holding throughout (test): FP
The target in assay [1] is T1, moesin FERM domain (UniProt P26038 2-295).
For assay [2], the target named is ezrin FERM domain (as used in FP) (UniProt P15311 2-296).
Assay [3] deals with T2, radixin FERM domain (as used in FP) (human, UniProt P35241 5-295).
T2 chain: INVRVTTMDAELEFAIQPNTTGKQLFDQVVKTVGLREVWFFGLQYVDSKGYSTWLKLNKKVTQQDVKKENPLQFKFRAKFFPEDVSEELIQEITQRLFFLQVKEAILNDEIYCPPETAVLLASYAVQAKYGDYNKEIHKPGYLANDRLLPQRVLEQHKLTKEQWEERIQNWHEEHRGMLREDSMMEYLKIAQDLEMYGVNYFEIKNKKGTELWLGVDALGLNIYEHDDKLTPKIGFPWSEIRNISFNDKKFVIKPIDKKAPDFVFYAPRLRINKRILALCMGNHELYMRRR

For the next assay, the target named is T3, merlin FERM domain (human, UniProt P35240 22-312).
T3 chain: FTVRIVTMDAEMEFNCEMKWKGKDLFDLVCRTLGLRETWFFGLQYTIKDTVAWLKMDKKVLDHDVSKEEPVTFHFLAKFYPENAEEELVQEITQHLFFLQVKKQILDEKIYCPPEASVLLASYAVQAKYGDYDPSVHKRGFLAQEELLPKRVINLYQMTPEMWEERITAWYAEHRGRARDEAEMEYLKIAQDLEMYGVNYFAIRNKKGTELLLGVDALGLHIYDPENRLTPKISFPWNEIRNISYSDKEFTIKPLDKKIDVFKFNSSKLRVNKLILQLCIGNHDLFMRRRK

For assay [4], the target named is T1, moesin FERM domain. This is another data set of the same source.
Assay [5] deals with T1, moesin FERM domain. This is another data set of the same source.

Sequence of ezrin FERM domain (as used in FP) (P15311 2-296): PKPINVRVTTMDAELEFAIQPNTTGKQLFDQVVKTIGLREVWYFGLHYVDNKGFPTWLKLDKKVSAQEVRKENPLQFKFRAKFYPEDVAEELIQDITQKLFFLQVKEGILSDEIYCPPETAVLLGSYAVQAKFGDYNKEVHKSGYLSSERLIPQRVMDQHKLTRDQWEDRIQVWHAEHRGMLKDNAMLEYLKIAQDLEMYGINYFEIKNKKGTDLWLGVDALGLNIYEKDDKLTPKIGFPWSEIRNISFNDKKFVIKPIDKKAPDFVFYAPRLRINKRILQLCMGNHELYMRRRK

As usually defined, the Kd is the free concentration of one partner at which half of the binding sites on the other are occupied at equilibrium, for simple one-to-one binding. A lower Kd goes with higher affinity. In the case of {FITC}-THHKALQEIRNSLLPF [FITC-LATS1(73–88) peptide], the Kd in the assay with moesin FERM domain [1] was found to be 1000 nM; in assay [2] it was 1200 nM; in assay [3] it was 1700 nM; with merlin FERM domain, 8500 nM.
For the molecule SYSVQTMETVPYQPFP (also: FITC label, position not given here) [FITC-TBX4(428–443) peptide], the Kd with moesin FERM domain [1] is 750 nM; in assay [2] it was 4500 nM; in assay [3], 4600 nM.
Regarding {FITC}-YYSVNTFKEHHSTPTI [FITC-KIRREL3(637–652) peptide], the results for the Kd (with moesin FERM domain [1]; in assay [2]; in assay [3]) were 80 nM, 1400 nM and 1400 nM, respectively.
LEFADFYDFRSSYPDH [ZNF622(341–356) peptide, unlabeled] had a Kd in the assay with moesin FERM domain [4] of 1400 nM.
Molecule YYSVNTFKEHHSTPTI [KIRREL3(637–652) peptide, unlabeled] returned a Kd in the assay with moesin FERM domain [5] of 90 nM.
In the case of {FITC}-LEFADFYDFRSSYPDH [FITC-ZNF622(341–356) peptide], the Kd with moesin FERM domain [1] was 1000 nM; in assay [2], 1600 nM; in assay [3] it was 2500 nM; with merlin FERM domain, 4100 nM.
As to PYTSYSVQTMETVPYQPFP [TBX4 peptide extended N-terminally with PYT], the affinity in the assay with moesin FERM domain [5], expressed as Kd, was 3200 nM. This lies in the single-digit micromolar range.
Turning to FYDLWASDNPLDRPLV (also: FITC label, position not given here) [FITC-NOP53(192–207) peptide], the Kd was 710 nM with moesin FERM domain [1], 2400 nM in assay [2], 3500 nM in assay [3] and 17000 nM in the assay with merlin FERM domain.
TNGYYSVNTFKEHHSTPTI [KIRREL3(634–652) peptide, unlabeled, N-terminally extended] had a Kd in the assay with moesin FERM domain [5] of 120 nM. That is a sub-micromolar value.
As for SYSVQTMETVPYQPFP [TBX4(428–443) peptide, unlabeled], the Kd in the assay with moesin FERM domain [5] was 1000 nM. Compared with the last molecule, the Kd is about 8.3-fold higher.
For {FITC}-WSKKNELFSNL [FITC-EBP50(348–358) peptide], the Kd was 3000 nM with moesin FERM domain [1], 3200 nM in assay [2], 3200 nM in assay [3] and 1800 nM in the assay with merlin FERM domain.
